Measurements taken from paper PMC10540216, “Activity Guided Azide-methyllysine Photo-trapping for Substrate Profiling of Lysine Demethylases” (Journal of the American Chemical Society, 2023).

B1: NCKP1_HUMAN (protein, UniProt Q9Y2A7 2-1128, looked up)
Nck-associated protein 1: SRSVLQPSQQKLAEKLTILNDRGVGMLTRLYNIKKACGDPKAKPSYLIDKNLESAVKFIVRKFPAVETRNNNQQLAQLQKEKSEILKNLALYYFTFVDVMEFKDHVCELLNTIDVCQVFFDITVNFDLTKNYLDLIITYTTLMILLSRIEERKAIIGLYNYAHEMTHGASDREYPRLGQMIVDYENPLKKMMEEFVPHSKSLSDALISLQMVYPRRNLSADQWRNAQLLSLISAPSTMLNPAQSDTMPCEYLSLDAMEKWIIFGFILCHGILNTDATALNLWKLALQSSSCLSLFRDEVFHIHKAAEDLFVNIRGYNKRINDIRECKEAAVSHAGSMHRERRKFLRSALKELATVLSDQPGLLGPKALFVFMALSFARDEIIWLLRHADNMPKKSADDFIDKHIAELIFYMEELRAHVRKYGPVMQRYYVQYLSGFDAVVLNELVQNLSVCPEDESIIMSSFVNTMTSLSVKQVEDGEVFDFRGMRLDWFRLQAYTSVSKASLGLADHRELGKMMNTIIFHTKMVDSLVEMLVETSDLSIFCFYSRAFEKMFQQCLELPSQSRYSIAFPLLCTHFMSCTHELCPEERHHIGDRSLSLCNMFLDEMAKQARNLITDICTEQCTLSDQLLPKHCAKTISQAVNKKSKKQTGKKGEPEREKPGVESMRKNRLVVTNLDKLHTALSELCFSINYVPNMVVWEHTFTPREYLTSHLEIRFTKSIVGMTMYNQATQEIAKPSELLTSVRAYMTVLQSIENYVQIDITRVFNNVLLQQTQHLDSHGEPTITSLYTNWYLETLLRQVSNGHIAYFPAMKAFVNLPTENELTFNAEEYSDISEMRSLSELLGPYGMKFLSESLMWHISSQVAELKKLVVENVDVLTQMRTSFDKPDQMAALFKRLSSVDSVLKRMTIIGVILSFRSLAQEALRDVLSYHIPFLVSSIEDFKDHIPRETDMKVAMNVYELSSAAGLPCEIDPALVVALSSQKSENISPEEEYKIACLLMVFVAVSLPTLASNVMSQYSPAIEGHCNNIHCLAKAINQIAAALFTIHKGSIEDRLKEFLALASSSLLKIGQETDKTTTRNRESVYLLLDMIVQESPFLTMDLLESCFPYVLLRNAYHAVYKQSVTSSA
B2: YTDC2_HUMAN (protein, UniProt Q9H6S0 1-1430, looked up)
3'-5' RNA helicase YTHDC2: MSRPSSVSPRQPAPGGGGGGGPSPCGPGGGGRAKGLKDIRIDEEVKIAVNIALERFRYGDQREMEFPSSLTSTERAFIHRLSQSLGLVSKSKGKGANRYLTVKKKDGSETAHAMMTCNLTHNTKHAVRSLIQRFPVTNKERTELLPKTERGNVFAVEAENREMSKTSGRLNNGIPQIPVKRGESEFDSFRQSLPVFEKQEEIVKIIKENKVVLIVGETGSGKTTQIPQFLLDDCFKNGIPCRIFCTQPRRLAAIAVAERVAAERRERIGQTIGYQIRLESRVSPKTLLTFCTNGVLLRTLMAGDSTLSTVTHVIVDEVHERDRFSDFLLTKLRDLLQKHPTLKLILSSAALDVNLFIRYFGSCPVIYIQGRPFEVKEMFLEDILRTTGYTNKEMLKYKKEKQQEEKQQTTLTEWYSAQENSFKPESQRQRTVLNVTDEYDLLDDGGDAVFSQLTEKDVNCLEPWLIKEMDACLSDIWLHKDIDAFAQVFHLILTENVSVDYRHSETSATALMVAAGRGFASQVEQLISMGANVHSKASNGWMALDWAKHFGQTEIVDLLESYSATLEFGNLDESSLVQTNGSDLSAEDRELLKAYHHSFDDEKVDLDLIMHLLYNICHSCDAGAVLIFLPGYDEIVGLRDRILFDDKRFADSTHRYQVFMLHSNMQTSDQKKVLKNPPAGVRKIILSTNIAETSITVNDVVFVIDSGKVKEKSFDALNFVTMLKMVWISKASAIQRKGRAGRCRPGICFRLFSRLRFQNMLEFQTPELLRMPLQELCLHTKLLAPVNCPIADFLMKAPEPPPALIVRNAVQMLKTIDAMDTWEDLTELGYHLADLPVEPHLGKMVLCAVVLKCLDPILTIACTLAYRDPFVLPTQASQKRAAMLCRKRFTAGAFSDHMALLRAFQAWQKARSDGWERAFCEKNFLSQATMEIIIGMRTQLLGQLRASGFVRARGGGDIRDVNTNSENWAVVKAALVAGMYPNLVHVDRENLVLTGPKEKKVRFHPASVLSQPQYKKIPPANGQAAAIKALPTDWLIYDEMTRAHRIANIRCCSAVTPVTILVFCGPARLASNALQEPSSFRVDGIPNDSSDSEMEDKTTANLAALKLDEWLHFTLEPEAASLLLQLRQKWHSLFLRRMRAPSKPWSQVDEATIRAIIAVLSTEEQSAGLQQPSGIGQRPRPMSSEELPLASSWRSNNSRKSSADTEFSDECTTAERVLMKSPSPALHPPQKYKDRGILHPKRGTEDRSDQSSLKSTDSSSYPSPCASPSPPSSGKGSKSPSPRPNMPVRYFIMKSSNLRNLEISQQKGIWSTTPSNERKLNRAFWESSIVYLVFSVQGSGHFQGFSRMSSEIGREKSQDWGSAGLGGVFKVEWIRKESLPFQFAHHLLNPWNDNKKVQISRDGQELEPLVGEQLLQLWERLPLGEKNTTD
B3: PREP_HUMAN (protein, UniProt Q5JRX3 29-1037, looked up)
Presequence protease, …: NSNRACERALQYKLGDKIHGFTVNQVTSVPELFLTAVKLTHDDTGARYLHLAREDTNNLFSVQFRTTPMDSTGVPHILEHTVLCGSQKYPCRDPFFKMLNRSLSTFMNAFTASDYTLYPFSTQNPKDFQNLLSVYLDATFFPCLRELDFWQEGWRLEHENPSDPQTPLVFKGVVFNEMKGAFTDNERIFSQHLQNRLLPDHTYSVVSGGDPLCIPELTWEQLKQFHATHYHPSNARFFTYGNFPLEQHLKQIHEEALSKFQKIEPSTVVPAQTPWDKPREFQITCGPDSFATDPSKQTTISVSFLLPDITDTFEAFTLSLLSSLLTSGPNSPFYKALIESGLGTDFSPDVGYNGYTREAYFSVGLQGIAEKDIETVRSLIDRTIDEVVEKGFEDDRIEALLHKIEIQMKHQSTSFGLMLTSYIASCWNHDGDPVELLKLGNQLAKFRQCLQENPKFLQEKVKQYFKNNQHKLTLSMRPDDKYHEKQAQVEATKLKQKVEALSPGDRQQIYEKGLELRSQQSKPQDASCLPALKVSDIEPTIPVTELDVVLTAGDIPVQYCAQPTNGMVYFRAFSSLNTLPEELRPYVPLFCSVLTKLGCGLLDYREQAQQIELKTGGMSASPHVLPDDSHMDTYEQGVLFSSLCLDRNLPDMMQLWSEIFNNPCFEEEEHFKVLVKMTAQELANGIPDSGHLYASIRAGRTLTPAGDLQETFSGMDQVRLMKRIAEMTDIKPILRKLPRIKKHLLNGDNMRCSVNATPQQMPQTEKAVEDFLRSIGRSKKERRPVRPHTVEKPVPSSSGGDAHVPHGSQVIRKLVMEPTFKPWQMKTHFLMPFPVNYVGECIRTVPYTDPDHASLKILARLMTAKFLHTEIREKGGAYGGGAKLSHNGIFTLYSYRDPNTIETLQSFGKAVDWAKSGKFTQQDIDEAKLSVFSTVDAPVAPSDKGMDHFLYGLSDEMKQAHREQLFAVSHDKLLAVSDRYLGTGKSTHGLAILGPENPKIAKDPSWIIQ
B4: SAFB1_HUMAN (protein, UniProt Q15424 2-915, looked up)
Scaffold attachment factor B1: AETLSGLGDSGAAGAAALSSASSETGTRRLSDLRVIDLRAELRKRNVDSSGNKSVLMERLKKAIEDEGGNPDEIEITSEGNKKTSKRSSKGRKPEEEGVEDNGLEENSGDGQEDVETSLENLQDIDIMDISVLDEAEIDNGSVADCVEDDDADNLQESLSDSRELVEGEMKELPEQLQEHAIEDKETINNLDTSSSDFTILQEIEEPSLEPENEKILDILGETCKSEPVKEESSELEQPFAQDTSSVGPDRKLAEEEDLFDSAHPEEGDLDLASESTAHAQSSKADSLLAVVKREPAEQPGDGERTDCEPVGLEPAVEQSSAASELAEASSEELAEAPTEAPSPEARDSKEDGRKFDFDACNEVPPAPKESSTSEGADQKMSSPEDDSDTKRLSKEEKGRSSCGRNFWVSGLSSTTRATDLKNLFSKYGKVVGAKVVTNARSPGARCYGFVTMSTAEEATKCINHLHKTELHGKMISVEKAKNEPVGKKTSDKRDSDGKKEKSSNSDRSTNLKRDDKCDRKDDAKKGDDGSGEKSKDQDDQKPGPSERSRATKSGSRGTERTVVMDKSKGVPVISVKTSGSKERASKSQDRKSASREKRSVVSFDKVKEPRKSRDSESHSRVRERSEREQRMQAQWEREERERLEIARERLAFQRQRLERERMERERLERERMHVEHERRREQERIHREREELRRQQELRYEQERRPAVRRPYDLDRRDDAYWPEAKRAALDERYHSDFNRQDRFHDFDHRDRGRYPDHSVDRREGSRSMMGEREGQHYPERHGGPERHGRDSRDGWGGYGSDKRMSEGRGLPPPPRRDWGDHGRREDDRSWQGTADGGMMDRDHKRWQGGERSMSGHSGPGHMMNRGGMSGRGSFAPGGASRGHPIPHGGMQGGFGGQSRGSRPSDARFTRRY
B5: SIN3A_HUMAN (protein, UniProt Q96ST3 1-1273, looked up)
Paired amphipathic helix …: MKRRLDDQESPVYAAQQRRIPGSTEAFPHQHRVLAPAPPVYEAVSETMQSATGIQYSVTPSYQVSAMPQSSGSHGPAIAAVHSSHHHPTAVQPHGGQVVQSHAHPAPPVAPVQGQQQFQRLKVEDALSYLDQVKLQFGSQPQVYNDFLDIMKEFKSQSIDTPGVISRVSQLFKGHPDLIMGFNTFLPPGYKIEVQTNDMVNVTTPGQVHQIPTHGIQPQPQPPPQHPSQPSAQSAPAPAQPAPQPPPAKVSKPSQLQAHTPASQQTPPLPPYASPRSPPVQPHTPVTISLGTAPSLQNNQPVEFNHAINYVNKIKNRFQGQPDIYKAFLEILHTYQKEQRNAKEAGGNYTPALTEQEVYAQVARLFKNQEDLLSEFGQFLPDANSSVLLSKTTAEKVDSVRNDHGGTVKKPQLNNKPQRPSQNGCQIRRHPTGTTPPVKKKPKLLNLKDSSMADASKHGGGTESLFFDKVRKALRSAEAYENFLRCLVIFNQEVISRAELVQLVSPFLGKFPELFNWFKNFLGYKESVHLETYPKERATEGIAMEIDYASCKRLGSSYRALPKSYQQPKCTGRTPLCKEVLNDTWVSFPSWSEDSTFVSSKKTQYEEHIYRCEDERFELDVVLETNLATIRVLEAIQKKLSRLSAEEQAKFRLDNTLGGTSEVIHRKALQRIYADKAADIIDGLRKNPSIAVPIVLKRLKMKEEEWREAQRGFNKVWREQNEKYYLKSLDHQGINFKQNDTKVLRSKSLLNEIESIYDERQEQATEENAGVPVGPHLSLAYEDKQILEDAAALIIHHVKRQTGIQKEDKYKIKQIMHHFIPDLLFAQRGDLSDVEEEEEEEMDVDEATGAVKKHNGVGGSPPKSKLLFSNTAAQKLRGMDEVYNLFYVNNNWYIFMRLHQILCLRLLRICSQAERQIEEENREREWEREVLGIKRDKSDSPAIQLRLKEPMDVDVEDYYPAFLDMVRSLLDGNIDSSQYEDSLREMFTIHAYIAFTMDKLIQSIVRQLQHIVSDEICVQVTDLYLAENNNGATGGQLNTQNSRSLLESTYQRKAEQLMSDENCFKLMFIQSQGQVQLTIELLDTEEENSDDPVEAERWSDYVERYMNSDTTSPELREHLAQKPVFLPRNLRRIRKCQRGREQQEKEGKEGNSKKTMENVDSLDKLECRFKLNSYKMVYVIKSEDYMYRRTALLRAHQSHERVSKRLHQRFQAWVDKWTKEHVPREMAAETSKWLMGEGLEGLVPCTTTCDTETLHFVSINKYRVKYGTVFKAP

System: KDM4A-I71AzF
Assay: CASI: photo-crosslinking with HEK293T cell extracts, StrepTactin enrichment and LC-MS/MS proteomics;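 note: lysates from HEK293T cells pretreated with a KDM4 inhibitor to raise proteome methylation, affinity-purified after ±UV, gel-resolved, trypsin-digested, with exclusive unique peptides per protein averaged per condition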
Assay type: binding, human
Details: sheet "Final results but with 0.01"

Going from B1 to B2, the “Fold change (+UV/-UV)” value falls from 0.6 to 0.3333.

Compared with B3, B4 is higher in “Fold change (+UV/-UV)” value: 0.2 for the first, 0.5 for the second.

In the case of B5, the “Fold change (+UV/-UV)” value is reported as 1.333.
